*1 amine or outer side, *2 acyl side, *3 side chain or, on linkers, in order; H or OH if unused. Where no end group is shown, it is not given here. Side-chain parts run from the residue outwards. The star is where a group is joined. C20 diacid = O=C(O)CCCCCCCCCCCCCCCCCCC(=O)*; C18 diacid = O=C(O)CCCCCCCCCCCCCCCCC(=O)*; C16 diacid = O=C(O)CCCCCCCCCCCCCCC(=O)*; γGlu = O=C(O)[C@H](CCC(=O)[*:2])N[*:1]; C14 diacid = O=C(O)CCCCCCCCCCCCC(=O)*; AEEA = NCCOCCOCC(=O)O

The record followed here is patent US20130079278A1 (Novo Nordisk, published 2013).

B1: N^ε24-[(4S)-4-carboxy-4-[[(4S)-4-carboxy-4-[[2-[2-[2-[[2-[2-[2-[[(4S)-4-carboxy-4-(17-carboxyheptadecanoylamino)butanoyl]amino]ethoxy]ethoxy]acetyl]amino]ethoxy … (peptide)
peptide: HSQGTFTSDYSRYLESRRAQDFVK([γGlu-γGlu-AEEA-AEEA-γGlu-C18 diacid])WLLST
modifications: not fully specified; printed as Nε24-[(4S)-4-carboxy-4-[[(4S)-4-carboxy-4-[[2-[2-[2-[[2-[2-[2-[[(4S)-4-carboxy-4-(17-carboxyheptadecanoylamino)butanoyl]amino]ethoxy]ethoxy]acetyl]amino]ethoxy]ethoxy]acetyl]amino]butanoyl]amino]butanoyl]-[Arg12,Glu15,Lys24,Leu27,Ser25]-Glucagon
B2: N^ε24-[(4S)-4-carboxy-4-[[(4S)-4-carboxy-4-[[2-[2-[2-[[2-[2-[2-[[(4S)-4-carboxy-4-(17-carboxyheptadecanoylamino)butanoyl]amino]ethoxy]ethoxy]acetyl]amino]ethoxy … (peptide)
peptide: HSQGTFTSDYSKYLDTRRAQDFVK([γGlu-γGlu-AEEA-AEEA-γGlu-C18 diacid])WLLST-NH2
modifications: N-terminus assumed
SMILES: CC(C)C[C@H](NC(=O)[C@H](Cc1c[nH]c2ccccc12)NC(=O)[C@H](CCCCNC(=O)CC[C@H](NC(=O)CC[C@H](NC(=O)COCCOCCNC(=O)COCCOCCNC(=O)CC[C@H](NC(=O)CCCCCCCCCCCCCCCCC(=O)O)C(=O)O)C(=O)O)C(=O)O)NC(=O)[C@@H](NC(=O)[C@H](Cc1ccccc1)NC(=O)[C@H](CC(=O)O)NC(=O)[C@H](CCC(N)=O)NC(=O)[C@H](C)NC(=O)[C@H](CCCNC(=N)N)NC(=O)[C@H](CCCNC(=N)N)NC(=O)[C@@H](NC(=O)[C@H](CC(=O)O)NC(=O)[C@H](CC(C)C)NC(=O)[C@H](Cc1ccc(O)cc1)NC(=O)[C@H](CCCCN)NC(=O)[C@H](CO)NC(=O)[C@H](Cc1ccc(O)cc1)NC(=O)[C@H](CC(=O)O)NC(=O)[C@H](CO)NC(=O)[C@@H](NC(=O)[C@H](Cc1ccccc1)NC(=O)[C@@H](NC(=O)CNC(=O)[C@H](CCC(N)=O)NC(=O)[C@H](CO)NC(=O)[C@@H](N)Cc1c[nH]cn1)[C@@H](C)O)[C@@H](C)O)[C@@H](C)O)C(C)C)C(=O)N[C@@H](CC(C)C)C(=O)N[C@@H](CO)C(=O)N[C@H](C(N)=O)[C@@H](C)O

In this assay the target is glucagon receptor (human, UniProt P47871 26-477). Kind of assay: cell-based or functional assay.
Sequence of glucagon receptor (P47871 26-477): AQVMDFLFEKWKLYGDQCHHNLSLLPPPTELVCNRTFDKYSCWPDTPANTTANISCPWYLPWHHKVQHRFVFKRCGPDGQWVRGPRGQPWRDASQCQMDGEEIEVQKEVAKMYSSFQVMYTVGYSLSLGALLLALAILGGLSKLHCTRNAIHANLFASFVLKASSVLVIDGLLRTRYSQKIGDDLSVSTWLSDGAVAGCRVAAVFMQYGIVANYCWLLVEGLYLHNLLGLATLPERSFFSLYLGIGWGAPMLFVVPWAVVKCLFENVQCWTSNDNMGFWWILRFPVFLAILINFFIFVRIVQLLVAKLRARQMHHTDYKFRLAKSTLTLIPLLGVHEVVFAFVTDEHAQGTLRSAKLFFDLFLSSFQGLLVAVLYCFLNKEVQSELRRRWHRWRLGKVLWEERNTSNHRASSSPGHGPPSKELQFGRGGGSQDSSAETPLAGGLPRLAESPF
For the molecule HSQGTFTSDYSKYLDTRRAQDFVK([AEEA-γGlu-γGlu-AEEA-γGlu-C18 diacid])WLLST, the “Assay (I) Glucagon [EC50]” value stood at 0.078 nM.

As for HSHGTFTSDYSKYLDERRAKDFVK([γGlu-γGlu-AEEA-AEEA-γGlu-C18 diacid])WLLST, the “Assay (I) Glucagon [EC50]” value came out at 0.237 nM.

On to HSQGTFTSDYSRYLDLRRAQDFVK([γGlu-AEEA-AEEA-γGlu-γGlu-C18 diacid])WLLST, for which the “Assay (I) Glucagon [EC50]” value was 0.91 nM.

On to HSQGTFTSDYSKYLDVRRAQDFVK([γGlu-γGlu-AEEA-AEEA-γGlu-C18 diacid])WLLST, for which the “Assay (I) Glucagon [EC50]” value came out at 0.307 nM.

Consider HSQGTFTSDYSKYLESRRAQDFVK([γGlu-AEEA-AEEA-γGlu-C18 diacid])WLLNV, for which the “Assay (I) Glucagon [EC50]” value is 0.92 nM.

Turning to HSQGTFTSDYSKYLDTRRAQEFVK([γGlu-γGlu-AEEA-AEEA-γGlu-C18 diacid])WLLST, the “Assay (I) Glucagon [EC50]” value came out at 0.072 nM.

In the case of HSQGTFTSDYSRYLDLRRAQDFVK([γGlu-γGlu-AEEA-AEEA-γGlu-C18 diacid])WLLTT, the “Assay (I) Glucagon [EC50]” value was 0.754 nM.

As for HSQGTFTSDYSRYLDLRRAQDFVK([AEEA-AEEA-γGlu-γGlu-γGlu-C18 diacid])WLLST, the “Assay (I) Glucagon [EC50]” value amounted to 0.1 nM.

Regarding B1, the “Assay (I) Glucagon [EC50]” value came to 0.748 nM.

For the molecule HSQGTFTSDYSRYLDLRRAQDFVK([γGlu-γGlu-AEEA-AEEA-γGlu-C18 diacid])WLLIT, the “Assay (I) Glucagon [EC50]” value came to 1.67 nM.

For HSQGTFTSDYSKYLDTRRAQDFVK([γGlu-AEEA-AEEA-γGlu-C18 diacid])WLLNI, the “Assay (I) Glucagon [EC50]” value came out at 0.413 nM.

HSHGTFTSDYSKYLDSRRAQDFVK([γGlu-γGlu-AEEA-AEEA-γGlu-C18 diacid])WLLST: the “Assay (I) Glucagon [EC50]” value was found to be 0.129 nM.

As to HSQGTFTSDYSKYLDTRRAQDFVK([γGlu-γGlu-AEEA-AEEA-γGlu-C18 diacid])WLLST, the “Assay (I) Glucagon [EC50]” value was 0.075 nM.

As for HSQGTFTSDYSRYLDRRRAQDFVK([γGlu-γGlu-AEEA-AEEA-γGlu-C18 diacid])WLLST, the “Assay (I) Glucagon [EC50]” value was 0.355 nM.

HSQGTFTSDYSKYLDARRAQDFVK([γGlu-γGlu-AEEA-AEEA-γGlu-C18 diacid])WLLST: the “Assay (I) Glucagon [EC50]” value came to 0.049 nM.

With HSQGTFTSDYSKYLESRRAQDFVK([γGlu-AEEA-AEEA-γGlu-C18 diacid])WLLNI, the “Assay (I) Glucagon [EC50]” value came out at 1.12 nM.

As for HSQGTFTSDYSRYLDIRRAQDFVK([γGlu-γGlu-AEEA-AEEA-γGlu-C18 diacid])WLLST, the “Assay (I) Glucagon [EC50]” value was 1.04 nM.

Regarding HSHGTFTSDYSKYLDSRRAKDFVK([γGlu-γGlu-AEEA-AEEA-γGlu-C18 diacid])WLLST, the “Assay (I) Glucagon [EC50]” value came to 0.249 nM.

For HSQGTFTSDYSRYLDVRRAQDFVK([γGlu-γGlu-AEEA-AEEA-γGlu-C18 diacid])WLLST, the “Assay (I) Glucagon [EC50]” value came to 1.32 nM.

Turning to HSQGTFTSDVSKYLDTRRAQEFVK([γGlu-γGlu-AEEA-AEEA-γGlu-C18 diacid])WLLST, the “Assay (I) Glucagon [EC50]” value is 0.139 nM.

HSQGTFTSDYSRYLDERRAQDFVK([γGlu-γGlu-AEEA-AEEA-γGlu-C18 diacid])WLLST: the “Assay (I) Glucagon [EC50]” value was 0.153 nM.

Turning to HSQGTFTSDYSRYLDLRRAQDFVK([γGlu-γGlu-AEEA-AEEA-γGlu-C16 diacid])WLLST, the “Assay (I) Glucagon [EC50]” value was 0.067 nM.

Turning to HSQGTFTSDYSRYLDLRRAQDFVK([γGlu-γGlu-AEEA-AEEA-γGlu-C18 diacid])WLLST, the “Assay (I) Glucagon [EC50]” value came out at 0.255 nM.

Regarding HSQGTFTSDYSRYLDLRRAQDFVK([γGlu-γGlu-AEEA-AEEA-γGlu-C20 diacid])WLLST, the “Assay (I) Glucagon [EC50]” value turned out to be 1.07 nM.

For HSQGTFTSDYSKYLDTRRAQEFVK([γGlu-AEEA-AEEA-γGlu-C18 diacid])WLLNV, the “Assay (I) Glucagon [EC50]” value was determined as 0.12 nM.

Turning to HSQGTFTSDYSRYLDTRRAQDFVK([γGlu-γGlu-AEEA-AEEA-γGlu-C18 diacid])WLLNT, the “Assay (I) Glucagon [EC50]” value stood at 0.031 nM.

As to HSQGTFTSDYSRYLDLRRAQDFVK([γGlu-γGlu-AEEA-AEEA-γGlu-C14 diacid])WLLST, the “Assay (I) Glucagon [EC50]” value was found to be 0.006 nM.

Regarding HSQGTFTSDYSKYLDTRRAQEFVK([γGlu-AEEA-AEEA-γGlu-C18 diacid])WLLNL, the “Assay (I) Glucagon [EC50]” value amounted to 0.183 nM.

In the case of HSQGTFTSDYSKYLDIRRAQDFVK([γGlu-γGlu-AEEA-AEEA-γGlu-C18 diacid])WLLST, the “Assay (I) Glucagon [EC50]” value was found to be 0.084 nM.

Consider HSQGTFTSDYSKYLESRRAQDFVK([γGlu-γGlu-AEEA-γGlu-C18 diacid])WLLST, for which the “Assay (I) Glucagon [EC50]” value amounted to 0.28 nM.

For HSQGTFTSDYSRYLDARRAQDFVK([γGlu-γGlu-AEEA-AEEA-γGlu-C18 diacid])WLLST, the “Assay (I) Glucagon [EC50]” value is 0.158 nM.

Regarding HSQGTFTSDYSRYLDLRRAQDFVK([γGlu-γGlu-γGlu-C18 diacid])WLLST, the “Assay (I) Glucagon [EC50]” value is 1.32 nM.

As for HSQGTFTSDYSRYLDTRRAQDFVK([γGlu-γGlu-AEEA-AEEA-γGlu-C18 diacid])WLLST, the “Assay (I) Glucagon [EC50]” value was 0.297 nM.

As to HSQGTFTSDYSKYLESRRAQDFVK([γGlu-AEEA-AEEA-γGlu-C18 diacid])WLLNL, the “Assay (I) Glucagon [EC50]” value stood at 1.9 nM.

Take HSQGTFTSDYSRYLDFRRAQDFVK([γGlu-γGlu-AEEA-AEEA-γGlu-C18 diacid])WLLST: the “Assay (I) Glucagon [EC50]” value was 1.64 nM.

For the molecule HSQGTFTSDYSKYLDERRAQDFVK([γGlu-γGlu-AEEA-AEEA-γGlu-C18 diacid])WLLST, the “Assay (I) Glucagon [EC50]” value was found to be 0.13 nM.

Take B2: the “Assay (I) Glucagon [EC50]” value was 0.039 nM.
